According to the supplement of paper PMC12042874:
± gives the uncertainty stated by the source.

Assay: amyloid nucleation score (Sup35N fusion, yeast selection) (log enrichment); library NNK2; higher = more nucleation; inactive = no reads after selection
Outline: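 Peptides of 20 random codons fused to Sup35N were expressed in psi-negative yeast, induced 24 hours with 100 μM copper sulfate, then grown 7 days at 30°C on medium lacking adenine and uracil. Input and output plasmid inserts were Illumina-sequenced. Nucleation score is the DiMSum log enrichment of output over input reads, centred on the mode score of non-aggregating sequences, excluding sequences with under 100 input reads. Random libraries had three technical output replicates.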

| Substance | amyloid nucleation score |
| --- | --- |
| CHYKMHSLHTARFEFFVMLF | -0.413 ± 0.41 |
| LSSGIMSGCEGGAWCCH | 0.605 ± 0.66 |
| VCHHSSI | inactive |
| TEMWFDGRNSRMIQAH | 0.081 ± 0.36 |
| VRFFYSFVPT | inactive |
| RWCSSYRYIHSGGRNASGSF | -0.108 ± 0.8 |
| NWLGCEMPIGGSSSVSAMYL | 1.17 ± 0.21 |
| FTLKINVPETGTIVLPELGS | 0.235 ± 0.48 |
| LLLVHL | 1.08 ± 0.68 |
| CRVLGQRRGASTNVSVHIVE | -0.097 ± 1.1 |
| TAGWIFEWTFGPVYVFNSPW | 8.016 ± 0.061 |
| LYHEDRSVISRLVSSRLKCK | 0.389 ± 0.38 |
| KRGCNQHFNSMRYLVMFLVS | -0.915 ± 0.62 |
| LMNLVVG | -0.701 ± 0.44 |
| MPNNVPEEN | 0.216 ± 0.62 |
| PGSNALVGLTIRCNVILKGG | 4.68 ± 0.086 |
| FNCGASKNSLKNEGKW | -0.925 ± 0.63 |
| QYSTSV | -0.548 ± 0.61 |
| RERMRY | 1.64 ± 0.18 |
| FHGPKYMSILRGELICKAPG | inactive |
| EYRGSVWLAGS | -0.379 ± 0.29 |
| VSGMPIKMR | 0.886 ± 0.34 |
| WGHFQEDARFTSYGVGSVLG | -0.263 ± 1.1 |
| VKGKE | 2.31 ± 0.14 |
| ELCGLMAEPYRSHILGCGWT | 3.67 ± 0.066 |

| Substance | amyloid nucleation score |
| --- | --- |
| ISLDWAPN | inactive |
| PSPVIWPISSPGFQSLCICS | -0.38 ± 0.63 |
| WTLTGHVRNLKLQVCMSVY | 0.789 ± 0.6 |
| MSRPSSYS | inactive |
| VRFQELAR | 0.343 ± 0.27 |
| QYRCGRRLVQRSEVVIVPVC | inactive |
| QMIWKIVCING | 4.55 ± 0.097 |
| VLPQDKNMILYYKSLLHLFC | 0.823 ± 0.44 |
| MGLVDGMCMFDFDLVLAVVG | inactive |
| CYMCWFNIILLQKFKRQGVL | 4.29 ± 0.063 |
| EYSGLDVTDCQDT | 0.44 ± 0.36 |
| TDYYAMWFHSIGRFSG | -1.33 ± 0.38 |
| VDRESRFWWEGVQGFLDYWV | -0.614 ± 0.79 |
| YRINEDET | -1.55 ± 0.41 |
| SSYRLDAWVKKLFSLSQRKG | -0.052 ± 0.32 |
| GGELP | -0.719 ± 0.79 |
| PCITRTARSQIVTFKRG | -0.35 ± 1.1 |
| TMFGPH | 0.775 ± 0.74 |
| GKQYPFHFI | -0.583 ± 1.1 |
| LRLDLRMPQRYRLGDTFVSS | 0.243 ± 0.24 |
| NGNGCLAFAKTVFCWVDGLP | 7.215 ± 0.046 |
| ILGCWELSHM | -0.849 ± 1.1 |
| AVCTESMLWS | 0.057 ± 0.16 |
| CAPDVQWFSKIAFE | 1.1 ± 0.53 |
| SGSGNLFA | -0.545 ± 0.45 |

| Substance | amyloid nucleation score |
| --- | --- |
| KYFVINPLIPIGQMEDIKLL | -0.156 ± 0.33 |
| NLTMYILRNYTCIMYYIKVC | -0.208 ± 1 |
| SIFHGWARWKGFG | -0.258 ± 0.48 |
| MGRTMILRSLDQMMVITVGL | -0.598 ± 0.36 |
| IQLMEFWLSGGLTVIMGILR | -0.971 ± 0.61 |
| IKISNLTTKVMSHFVSGVAK | -0.982 ± 0.48 |
| VIKTG | inactive |
| GLYNFLLSGQ | inactive |
| HIARCNNWNACLMSRRHNCW | 3.6 ± 0.061 |
| FLNNDRYRR | -1.67 ± 0.78 |
| FARLGLSSQHRRLIVC | -1.31 ± 0.54 |
| TYKFLSVFIDEFGQDFIMIW | -1.11 ± 0.43 |
| WLPMGRAGLCYYGEFDNSCW | inactive |
| RVTFSLWFADFIQNNLLKK | 0.158 ± 0.5 |
| DMRLKGLTRVFTGDNRFSLL | -0.064 ± 0.54 |
| ETFVYYFNVSSLVT | 0.11 ± 0.38 |
| GTMCFFMCTDYLYGSQTRLG | -0.054 ± 1.1 |
| CQSAASVL | -0.148 ± 0.31 |
| VRFSQKYCSVDIAMQRLFMV | -0.625 ± 0.25 |
| CKLTRGSPMSYSEVR | -0.188 ± 0.29 |
| NLGCWLVGWLNCGFRWDDDR | 5.639 ± 0.038 |
| LFGHLVLYYPFSSTINCVVV | 5.59 ± 0.056 |
| QELIDIGTNSFVDCCS | inactive |
| GLISDYFSPSCIVYAGVR | inactive |
| YRYPRCRVRLVS | -0.822 ± 0.35 |

| Substance | amyloid nucleation score |
| --- | --- |
| LFVIGLLSGVSICVYCRSWS | 3.41 ± 0.11 |
| EFCSYDGCYFIASMAFVDTR | -0.393 ± 1.1 |
| LSRRAINHFYNIITEVAGRG | inactive |
| IDMYRRQYDQSQIKCNFSS | -0.087 ± 0.45 |
| RIEIRQSLEDRLRAVSMAET | 1.64 ± 0.3 |
| IEMLSNY | -0.575 ± 0.49 |
| YRWVHLEFGARLAFQSVKNI | 0.241 ± 0.8 |
| ILWISHLELCENVLVLDWQM | 2.99 ± 0.048 |
| FVTTENLVNSLVLNMARAKK | 3.44 ± 0.097 |
| SHLKMDNPCLGF | -0.121 ± 0.25 |
| HCYSRPFESSSFMNSVSLKY | -0.149 ± 0.76 |
| RSDRVIGDMTGAECITLGRL | -0.82 ± 0.45 |
| STMREQRRRAWRKDCDVIKV | 1.84 ± 0.22 |
| SISSLLLRLRGTV | -0.305 ± 0.79 |
| GSCNASVPVQV | 0.057 ± 0.76 |
| PDSMGKVIYYKSESCFYSRG | 2.72 ± 0.086 |
| FPFFLHLFNYLLVRCLTVGF | inactive |
| SDTGGSVYMKTVGRTHLTYD | -0.252 ± 0.25 |
| RPNNLDMVH | 0.619 ± 0.57 |
| HHMKGAGPNNLFPGDPSGAR | 3.46 ± 0.065 |
| NNDYFTEGAGKGVTLIGALG | 4.443 ± 0.041 |
| VQDYFFSCFATRSV | 3.26 ± 0.059 |
| MLDVVARNH | 1.52 ± 0.3 |
| ASNAFRSGYWQGERHERMRL | 1.07 ± 0.14 |
| LFKMCTSVFRVCSAGMMELG | 0.35 ± 0.27 |

| Substance | amyloid nucleation score |
| --- | --- |
| YAFQW | 0.152 ± 0.77 |
| LVLIIK | 5.96 ± 0.075 |
| MSGFKGVITSTFIANSLLPM | -1.17 ± 0.48 |
| SAMLDRFYGVRFTMFCRAEH | 0.299 ± 0.61 |
| MMRVTIPGVVLSCWPFGSTR | 3.09 ± 0.11 |
| LSKLYTLVRNV | -0.576 ± 0.63 |
| SRKPNQINNRSRNSMLGARR | -0.162 ± 0.27 |
| MLVLSTGHPRGFWTRVVCCD | 0.092 ± 1.1 |
| ANTVHLKMLANSRSPDGTFR | 0.441 ± 0.32 |
| IYCLRAGTKHSSLLGAKEDK | 0.594 ± 0.66 |
| ANTFIPFFGISSVRSGRNAA | 2.65 ± 0.11 |
| SVRVVDDGKTGGVGGTSQR | 0.767 ± 0.8 |
| RHGMNGRLTFLASTYSASRL | 0.349 ± 0.22 |
| HTWGAHRFCRWRNTSASDSW | 8.703 ± 0.03 |
| YHRSCFWDYLISDGLKQACH | -1.51 ± 0.78 |
| LVSLVQRYLDHRPDNKM | -0.05 ± 0.48 |
| RWCQE | -0.288 ± 0.53 |
| NLILWKTYCAAFCVGFINCT | 5.36 ± 0.069 |
| NRIGLCRGLNQFFLPGMWSR | 0.283 ± 0.26 |
| HSSMLLSVFDLNARK | -0.174 ± 0.49 |
| EFMGVSR | 1.51 ± 0.52 |
| VFGWS | 0.745 ± 0.22 |
| DKYITCVESWWPSILGGEKP | 1.87 ± 0.23 |
| GHYKFSIVFPVACLIDRFSF | 5.13 ± 0.089 |
| WVKENI | -0.234 ± 0.65 |

| Substance | amyloid nucleation score |
| --- | --- |
| CVGSLQLHGVSRRCIRCWGR | 1.15 ± 0.4 |
| TCQLMMCNFVFCCKMTSTLK | 8.252 ± 0.047 |
| MFVFRCVVRTCRSDHENDHS | 4.987 ± 0.049 |
| MVCSRYRRVCSNVNG | 0.506 ± 0.48 |
| YVPPIGGNRHAHLVASCLGS | 0.434 ± 0.21 |
| GRLRDCRDEHNSNPTLRFTS | 0.449 ± 0.16 |
| DSCFRVLHRTGFVFMSWLII | 4.82 ± 0.082 |
| WYERVWLAWSR | 0.66 ± 0.57 |
| LGRNGASYLNDSCRIPNAGK | -0.562 ± 0.56 |
| NSTLRSLYTVFFIRMLQMVG | -0.753 ± 0.36 |
| DDIAVCWNCFVRLILMMWED | 1.57 ± 0.42 |
| ILLMNVNGILSIRVQRRKRV | -0.623 ± 0.79 |
| HDMRHYKGSPYYLNYWYGDG | -0.623 ± 0.55 |
| SDRQHNAYNFLFVL | 4.6 ± 0.051 |
| YNVMHRPGGWDFMYGNWMLG | 4.63 ± 0.063 |
| YGKGDLGRCSLDTSTTLSDW | 0.252 ± 0.65 |
| MRMYLGVDSENRASDMGRTR | 1.03 ± 0.36 |
| FYRNLLTFFYGVSFN | -0.807 ± 1 |
| AVWCDFHSERAMCVVGM | 5.249 ± 0.043 |
| HYRISLSIPHIDHAKAQALL | -0.603 ± 1 |
| ITKNHSVDDRCTMMYFYLCV | 3.76 ± 0.093 |
| SWLIDLTRHSFLI | -1.25 ± 0.78 |
| HRLFSY | -0.776 ± 0.63 |
| LIFFCLFEYRLRLHCNRRDH | -1.34 ± 0.49 |
| WSHVYSV | -0.124 ± 0.76 |

| Substance | amyloid nucleation score |
| --- | --- |
| WWYRLLWDKSCL | -1.06 ± 0.49 |
| KSCVGYLSAMESSVRL | 0.045 ± 0.79 |
| GFSRRGELHVSVYHIRDTFG | 4.88 ± 0.081 |
| TFATIRVAFMVMCRFDG | 3.23 ± 0.084 |
| HEAYLPRLNDVTTSPSPCPY | 0.487 ± 0.62 |
| VCYMLRNFCDVQHKK | 0.1 ± 0.63 |
| DLLRPSGMFFCYGQFYCLKC | -1.05 ± 0.39 |
| KMVYGLQGWLGLGSTVFWSP | 3.2 ± 0.13 |
| GMIFFHGNSLGVTDDSHK | 0.811 ± 0.82 |
| FRVTIMVIQNSPTVSPGLAG | 4.31 ± 0.08 |
| RGTAIKILYL | 5.46 ± 0.069 |
| MHVDVV | -0.352 ± 1 |
| RLEALRCLSYITSSSLYRCP | 0.163 ± 0.41 |
| TDLIAVGCPLMYSMRE | 2.04 ± 0.35 |
| FGNSDLNRAMLKRAKQMRSL | inactive |
| YFMTKETLHC | -1.64 ± 0.54 |
| LWTHGSYSVLRLIEPVGAQE | 0.971 ± 0.51 |
| KPNPFLVLLLRT | -0.123 ± 0.46 |
| GVGYPVFYWKVSMYSRDSDH | 3.38 ± 0.067 |
| LGGGHKMDLFCYMISIWYYM | 2.77 ± 0.18 |
| CAGMWRFMGMVFGISTLFQC | -1.44 ± 0.41 |
| CKRQYHYLIWRMMEMSPGVL | 5.07 ± 0.058 |
| SILGGVKSLRNIKLFSVWLA | -0.569 ± 0.79 |
